Experiment [1] concerns the target FLAG-tagged wild-type TgAMA1 on Toxoplasma gondii tachyzoites (Toxoplasma gondii) (UniProt B6KAM0).
For experiment [2], the target named is hypercleavable mutant form of TgAMA1 (AMA1^L/G) on Toxoplasma gondii tachyzoites (Toxoplasma gondii) (UniProt B6KAM0).

In the case of “D3 domain of TgRON2 fused to glutathione S-transferase (GST-D3) (domain or fragment)”, the amount of FLAG-tagged TgAMA1 ectodomain shed into the supernatant, constitutive microneme secretion assay, against GST-treated controls; dose dependent from 0.01 to 1 µM GST-D3, fold decrease at 5 µM in experiment [1] worked out at 5.7 fold. The constitutive cleavage and shedding of AMA1^L/G, microneme secretion assay, saturating (1 µM) GST-D3 against GST; percent inhibition in experiment [2] is 50%.

Values taken from paper PMC5021801.
